One protein from publication PMC8280356, “Purification and Characterization of Nit_(phym), a Robust Thermostable Nitrilase From Paraburkholderia phymatum” (Frontiers in Bioengineering and Biotechnology, 2021) can be followed below.

As a reminder, the stoichiometry N is a count of units in the complex or per binding partner.

This data set concerns the molecule itself. Description: SEC; analytical gel filtration on Superdex 200 Increase 10/300 GL; 100 uL of purified protein at 3.9 mg/mL; mobile phase 50 mM Tris-HCl pH 8.0, 0.15 mM NaCl, 10% glycerol, 0.3 mL/min; elution volume compared to a calibration curve of proteins of known molecular weight. In general terms: In gel filtration, larger molecules generally elute earlier.

B1: Nit_(phym), nitrilase from Paraburkholderia phymatum DSM 17167 (enzyme, UniProt B2JQY2 1-340, looked up)
chain: MSDQRVIRAAAVQIAPDFERPGGTLDRVCAAIDEAASKGVQLIVFPETFVPYYPYFSFVRPPVASGADHMRLYEQAVVVPGPVTHAVSERARRHAMVVVLGVNERDHGSLYNTQLVFDIDGCQVLKRRKITPTFHERMIWGQGDAAGLKVARTGIARVGALACWEHYNPLARYALMTQHEEIHCSQFPGSLVGPIFAEQIEVTIRHHALESGCFVVNSTGWLSDAQIESVTTDPKLQKALRGGCMTAIVSPEGQHLAEPLREGEGMVVADLDMALITKRKRMMDSVGHYARPELLSLAINDRPAMPVVPMSMSFERAGADVAPEIISGGQDECQHEPVAG
notes: nitrilase Nit_(phym) (NIT188) from Paraburkholderia phymatum DSM 17167, Uniprot ID B2JQY2; subunit with an apparent molecular mass of 37 kDa on SDS-PAGE; also called NIT188
Regarding B1, the “stoichiometry N” value was over 18 subunits.
